These sequences were tested against MtAHL1 (Medicago truncatula) (UniProt G7JGG2) (assay: EMSA). Conditions: EMSA as in Chen (ref. 37), 10 ng probe and 200 ng protein (titration 0-300 ng), SYBR Gold stain; binding buffer, pH and temperature not stated; protein eluted ….
MtAHL1 (Medicago truncatula), sequence (G7JGG2 entry or part of it): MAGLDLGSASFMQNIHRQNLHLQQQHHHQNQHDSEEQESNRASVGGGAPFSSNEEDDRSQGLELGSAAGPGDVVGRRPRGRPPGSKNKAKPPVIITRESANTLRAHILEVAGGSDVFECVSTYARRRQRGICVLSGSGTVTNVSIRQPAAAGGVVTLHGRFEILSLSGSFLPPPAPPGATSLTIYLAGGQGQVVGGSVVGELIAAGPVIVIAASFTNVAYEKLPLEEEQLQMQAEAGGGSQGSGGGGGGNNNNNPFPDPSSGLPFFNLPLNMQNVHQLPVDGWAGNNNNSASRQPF
“CTTTCTTTTATACAAATCATAAAATTATTACTTATAAATAGAGCTCATTATTGTTTAACAACCTTTCATTATTATTTTTTATTTCTTAGCCAGCCTTTCATAATAGAG (double strand) [probe B]” was tested, and the binding was “binds more weakly”. For “CCCATTGTTTTTCCCCTTTGCGTGAAATAAGTGTAAAATTATTTTATCACTTTATATAGTAAAAAATCAAATGATATGTTTACATCAACAAAACAGTTTTTAATAATTATGTTGTTGTAATTAATAC (double strand) [probe D]”, the binding was “binds more weakly”. For “GACAACTACGATACATCAACGTATTAAAGAGACATTTAATAATTATTTTAATTTTCAAAAAGTATTAATTACAACAACATAATTATTAAAAACTGTTTTGTTGATGTAAACATATC (double strand) [probe G]”, the binding was “binds”. With “GAAAGTAATAATTTTGAGACATCTATTCTATGAGCCAAAGAGACAACTACGATACATCAACGTATTAAAGAGACATTTAATAATTATTTTAATTTTCAAAAAGTATTAATTAC (double strand) [probe C]” the binding was “binds”. For “GTTTAACAACCTTTCATTATTATTTTTTATTTCTTAGCCAGCCTTTCATAATAGAGATAGGAAAACCAATATTATATTATGTTGATATGAGTGGGTGTGGAATCA (double strand) [probe E]”, the binding was “binds more weakly”. With “GTTAAACAATAATGAGCTCTATTTATAAGTAATAATTTTATGATTTGTATAAAAGAAAGTAATAATTTTGAGACATCTATTCTATGAGCCAAAGAGACAAC (double strand) [probe F]” the binding was “binds more weakly”. With “GAGATAGGAAAACCAATATTATATTATGTTGATATGAGTGGGTGTGGAATCACACAACGTGAATAAGGTCTCTTGTTTGAGTCTTGTGGTTAAATAAAACGTG (double strand) [probe A]” the binding was “binds more weakly”.

Reference: paper PMC9946822
